For experiment [1], the target named is T1, human TNFR1-Fc fusion protein (human, UniProt P19438 29-211).
T1 construct: range 29-211; Made in stably transfected HEK293 cells; coated on ELISA plates or immobilised on QCM chips; also called huTNFR1-Fc; human TNFR-Fc; not shown: Fc part from vector pSecTagL1-Fc
T1 sequence (looked up): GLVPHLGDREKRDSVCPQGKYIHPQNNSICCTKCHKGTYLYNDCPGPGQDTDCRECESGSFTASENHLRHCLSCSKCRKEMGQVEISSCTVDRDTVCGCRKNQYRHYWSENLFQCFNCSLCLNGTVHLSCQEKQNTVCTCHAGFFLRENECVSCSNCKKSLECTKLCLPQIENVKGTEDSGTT
The experiment can be described thus: QCM, human TNFR1-Fc immobilised, high receptor density (195 Hz). As for the experimental part: (§1) FIG. 1. […] Applied were triplicates of five concentrations between 3.9 nM and 62.5 nM.
(§2) Real-time binding dynamics in protein-protein interactions were determined by quartz crystal microbalance measurements (A-100 C-Fast or Cell-200 C-Fast, Attana, Stockholm, Sweden). One of the binding partners (ligand, e.g. TNFR1-Fc) was chemically immobilized on a carboxyl sensor chip according to the manufacturer's protocol at different densities (nearly 200 Hz in the case of saturating conditions to confirm previously published results and 50-100 Hz, in particular at about 50 Hz, to establish conditions of lower receptor density, better resembling the situation on the cellular surface). Binding experiments were performed with samples (analyte) diluted in PBST (PBS, 0.1% Tween 20) at pH 7.4 with a flow rate of 25 µl/min at 37° C. The chip was regenerated with 25 µl 5 mM NaOH or 20 mM glycine, pH 2.0. Every third measurement, an injection of running buffer was measured which was subtracted from the binding curve. Data were collected using the software provided by Attana for the particular device and analyzed by Attaché Office Evaluation software (Attana, Stockholm, Sweden) and TraceDrawe (ridgview instruments, Vange, Sweden).

For experiment [2], the target named is T1, human TNFR1-Fc fusion protein. Nature of the experiment: QCM, human TNFR1-Fc, moderate receptor density (86 Hz), biphasic fit, kon2 (high-affinity part). As for the experimental part:
as §2

The target is the same in experiment [3]. The experiment can be described thus: QCM, human TNFR1-Fc, moderate receptor density (86 Hz), biphasic fit, koff2 (high-affinity part). As for the experimental part: as §2
Experiment [4] has the same target. The experiment can be described thus: standard ELISA, human TNFR1-Fc. As for the experimental part: as §1
(§3) Microtiter plates were coated with 100 µl of the indicated protein (1 µg/ml in PBS, see Table 3.3) and incubated at 4° C. over night. The residual binding sites were blocked with 2% MPBS (skim milk in PBS, 200 µl per well) at room temperature for 2 hours and subsequently washed twice with PBS. 100 µl of the samples diluted in 2% MPBS were incubated at room temperature for 1 hour prior to the last incubation step with 100 µl of the HRP conjugated detection antibodies in 2% MPBS. In the case of competition experiments, both analyzed protein samples were prepared individually (either titrated or diluted to a single concentration) and mixed before they were applied to the plate. Bound protein was detected with 100 µl TMB substrate solution, the HRP-reaction was stopped by the addition of 50 µl 1 M H2SO4 and the absorption at the wavelength of 450 nm was measured using the Infinite microtiter plate reader (TECAN, Maennedorf, Switzerland). Between each incubation step and in advance of the detection, the plates were washed three times with PBST and twice with PBS.
(An ELISA detects its analyte on a solid surface through an enzyme-linked reagent.)

For experiment [5], the target named is T2, mouse TNFR2-Fc fusion protein (mouse, UniProt P25119 23-258).
T2 construct: range 23-258; not shown: Fc part from vector pSecTagL1-Fc
T2 sequence (looked up): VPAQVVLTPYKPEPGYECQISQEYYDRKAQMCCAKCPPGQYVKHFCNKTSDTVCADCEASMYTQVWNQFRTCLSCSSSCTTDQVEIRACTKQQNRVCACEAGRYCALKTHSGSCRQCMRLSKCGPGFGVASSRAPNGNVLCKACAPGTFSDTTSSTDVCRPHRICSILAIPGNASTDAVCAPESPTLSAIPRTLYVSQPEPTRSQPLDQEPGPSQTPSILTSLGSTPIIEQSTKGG
Nature of the experiment: ELISA on coated receptor-Fc fusion proteins, one antibody concentration (not given on the sheet). The method, then: (§4) FIG. 12. Species selectivity of scFv13.7 derivatives. […] Presented are mean and SD of two individual experiments.
as §3

Experiment [6] deals with T3, mouse TNFR1-Fc fusion protein (mouse, UniProt P25118 30-212).
T3 construct: range 30-212; also called moR1; not shown: Fc part from vector pSecTagL1-Fc
T3 sequence (looked up): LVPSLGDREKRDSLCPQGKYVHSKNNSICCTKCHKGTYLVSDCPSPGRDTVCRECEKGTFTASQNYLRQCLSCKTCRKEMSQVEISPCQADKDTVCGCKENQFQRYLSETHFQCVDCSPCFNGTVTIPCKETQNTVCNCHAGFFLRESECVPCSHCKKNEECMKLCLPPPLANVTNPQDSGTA
Described as above. As for the experimental part:
as §4, §3

Experiment [7] deals with T1, human TNFR1-Fc fusion protein. Nature of the experiment: QCM, human TNFR1-Fc immobilised, low receptor density (48 Hz). As for the experimental part:
as §2

B1: ATROSAB (antibody, IgG1, V domains shown)
VH: QVQLVQSGAEVKKPGSSVKVSCKASGYTFTDFYINWVRQAPGQGLEWIGEIYPYSGHAYYNEKFKARVTITADKSTSTAYMELSSLRSEDTAVYYCARWDFLDYWGQGTTVTVSS
VL: DIVMTQSPLSLPVTPGEPASISCRSSQSLLHSNGNTYLHWYLQKPGQSPQLLIYTVSNRFSGVPDRFSGSGSGTDFTLKISRVEAEDVGVYYCSQSTHVPYTFGGGTKVEIKR
notes: Humanized full-length IgG1 with a modified Fc region deficient in mediating effector functions (made according to WO2012035141); also called full length IgG ATROSAB
Regarding B1, in experiment [1], the “Factor (KD high density chip, ATROSAB against H398)” value is 1.5 fold and binding was put at a Kd of 350 pM. Besides, the kon (as a rule, a measure of how fast the partners come together) in experiment [2] amounted to 1.06e+06 M⁻¹ s⁻¹. Moreover, the koff – broadly, the first-order rate constant of dissociation – in experiment [3] turned out to be 0.000407 s⁻¹. Besides, in experiment [4], the concentration giving a half-maximal response (EC50) (usually the concentration at which the effect is half-maximal) was determined as 250 pM and the “Factor (EC50, ATROSAB against H398)” value is 1.7 fold. Further, the binding result in experiment [5] is listed as “no binding”. Besides, the binding result in experiment [6] is reported as “no binding”. Further, in experiment [7], the “Factor (KD low density chip, ATROSAB against H398)” value amounted to 2.8 fold; the “Factor (koff low density chip, ATROSAB against H398)” value was 7.6 fold; the Kd (usually the concentration at which binding is half-saturated) stood at 4500 pM; the “fold faster kon than H398” value worked out at 2.6 fold. The molecule further had an off-rate constant (koff) in experiment [7] of 0.0047 s⁻¹.

The values above are taken from patent US10689452 (UNIVERSIT T STUTTGART, dated 2020).
